# Results as given in the supplement of paper PMC11246515.
# ± gives the standard deviation of the averaged measurements.
# Assay: total protein half-life in vivo (active degradation + dilution); higher = more stable protein
# [1] = E. coli NCM3722 delta-clpP delta-lon delta-hslV, growth: N-lim chemostat, doubling time 6 h
# [2] = E. coli NCM3722 delta-clpP, growth: N-lim chemostat, doubling time 6 h
# [3] = E. coli NCM3722 delta-hslV, growth: N-lim chemostat, doubling time 6 h
# [4] = E. coli NCM3722 delta-lon, growth: N-lim chemostat, doubling time 6 h
# [5] = E. coli NCM3722 delta-smpB, growth: N-lim chemostat, doubling time 6 h
# [6] = wild type E. coli NCM3722, growth: C-lim chemostat, doubling time 3 h
# [7] = wild type E. coli NCM3722, growth: C-lim chemostat, doubling time 6 h
# [8] = wild type E. coli NCM3722, growth: C-lim chemostat, doubling time 12 h
# [9] = wild type E. coli NCM3722, growth: N-lim chemostat, doubling time 6 h
# [10] = wild type E. coli NCM3722, growth: N-lim chemostat, doubling time 12 h
# [11] = wild type E. coli NCM3722, growth: P-lim chemostat, doubling time 6 h
# [12] = wild type E. coli NCM3722, growth: P-lim chemostat, doubling time 12 h
Sequence,total protein half-life in vivo [1],total protein half-life in vivo [2],total protein half-life in vivo [3],total protein half-life in vivo [4],total protein half-life in vivo [5],total protein half-life in vivo [6],total protein half-life in vivo [7],total protein half-life in vivo [8],total protein half-life in vivo [9],total protein half-life in vivo [10],total protein half-life in vivo [11],total protein half-life in vivo [12]
MSVMFDPDTAIYPFPPKPTPLSIDEKAYYREKIKRLLKERNAVMVAHYYTDPEIQQLAEETGGCISDSLEMARFGAKHPASTLLVAGVRFMGETAKILSPEKTILMPTLQAECSLDLGCPVEEFNAFCDAHPDRTVVVYANTSAAVKARADWVVTSSIAVELIDHLDSLGEKIIWAPDKHLGRYVQKQTGGDILCWQGACIVHDEFKTQALTRLQEEYPDAAILVHPESPQAIVDMADAVGSTSQLIAAAKTLPHQRLIVATDRGIFYKMQQAVPDKELLEAPTAGEGATCRSCAHCPWMAMNGLQAIAEALEQEGSNHEVHVDERLRERALVPLNRMLDFAATLRG,3.98 ± 0.16 h,1.78 ± 0.25 h,0.977 ± 0.24 h,1.1 ± 0.098 h,1.08 ± 0.25 h,1.14 ± 0.026 h,1.39 ± 0.083 h,1.8 ± 0.44 h,0.926 ± 0.058 h,1.03 ± 0.097 h,1.26 h,2.48 ± 0.81 h
MSVQQIDWDLALIQKYNYSGPRYTSYPTALEFSEDFGEQAFLQAVARYPERPLSLYVHIPFCHKLCYFCGCNKIVTRQQHKADQYLDALEQEIVHRAPLFAGRHVSQLHWGGGTPTYLNKAQISRLMKLLRENFQFNADAEISIEVDPREIELDVLDHLRAEGFNRLSMGVQDFNKEVQRLVNREQDEEFIFALLNHAREIGFTSTNIDLIYGLPKQTPESFAFTLKRVAELNPDRLSVFNYAHLPTIFAAQRKIKDADLPSPQQKLDILQETIAFLTQSGYQFIGMDHFARPDDELAVAQREGVLHRNFQGYTTQGDTDLLGMGVSAISMIGDCYAQNQKELKQYYQQVDEQGNALWRGIALTRDDCIRRDVIKSLICNFRLDYAPIEKQWDLHFADYFAEDLKLLAPLAKDGLVDVDEKGIQVTAKGRLLIRNICMCFDTYLRQKARMQQFSRVI,4.79 ± 0.99 h,3.9 ± 0.13 h,3.36 ± 0.42 h,3.22 ± 0.1 h,2.98 ± 0.056 h,2.55 ± 0.33 h,4.23 ± 0.08 h,6.14 ± 0.71 h,2.99 ± 0.12 h,4.64 ± 0.16 h,4.23 ± 0.068 h,7.23 ± 0.7 h
MSVVISDAWRQRFGGTARLYGEKALQLFADAHICVVGIGGVGSWAAEALARTGIGAITLIDMDDVCVTNTNRQIHALRDNVGLAKAEVMAERIRQINPECRVTVVDDFVTPDNVAQYMSVGYSYVIDAIDSVRPKAALIAYCRRNKIPLVTTGGAGGQIDPTQIQVTDLAKTIQDPLAAKLRERLKSDFGVVKNSKGKLGVDCVFSTEALVYPQSDGTVCAMKATAEGPKRMDCASGFGAATMVTATFGFVAVSHALKKMMAKAARQG,4.94 ± 0.44 h,,3.85 ± 1.2 h,,5.05 ± 0.58 h,3.36 ± 0.59 h,5.77 ± 0.26 h,9.6 ± 0.78 h,4.87 ± 0.32 h,6.86 ± 1.1 h,5.2 ± 0.15 h,11.79 ± 0.028 h
MSVVPVADVLQGRVAVDSEVTVRGWVRTRRDSKAGISFLAVYDGSCFDPVQAVINNSLPNYNEDVLRLTTGCSVIVTGKVVASPGQGQQFEIQASKVEVAGWVEDPDTYPMAAKRHSIEYLREVAHLRPRTNLIGAVARVRHTLAQALHRFFNEQGFFWVSTPLITASDTEGAGEMFRVSTLDLENLPRNDQGKVDFDKDFFGKESFLTVSGQLNGETYACALSKIYTFGPTFRAENSNTSRHLAEFWMLEPEVAFANLNDIAGLAEAMLKYVFKAVLEERADDMKFFAERVDKDAVSRLERFIEADFAQVDYTDAVTILENCGRKFENPVYWGVDLSSEHERYLAEEHFKAPVVVKNYPKDIKAFYMRLNEDGKTVAAMDVLAPGIGEIIGGSQREERLDVLDERMLEMGLNKEDYWWYRDLRRYGTVPHSGFGLGFERLIAYVTGVQNVRDVIPFPRTPRNASF [P0A8M0],5.93 ± 0.36 h,5.65 ± 0.14 h,5.29 ± 0.32 h,6.11 ± 0.23 h,5.45 ± 0.33 h,3.23 ± 0.51 h,6.37 ± 0.33 h,11.55 ± 0.055 h,5.338 ± 0.0091 h,9.553 ± 0.028 h,6.83 ± 0.74 h,12.9 ± 0.18 h
MSWIERIKSNITPTRKASIPEGVWTKCDSCGQVLYRAELERNLEVCPKCDHHMRMTARNRLHSLLDEGSLVELGSELEPKDVLKFRDSKKYKDRLASAQKETGEKDALVVMKGTLYGMPVVAAAFEFAFMGGSMGSVVGARFVRAVEQALEDNCPLICFSASGGARMQEALMSLMQMAKTSAALAKMQERGLPYISVLTDPTMGGVSASFAMLGDLNIAEPKALIGFAGPRVIEQTVREKLPPGFQRSEFLIEKGAIDMIVRRPEMRLKLASILAKLMNLPAPNPEAPREGVVVPPVPDQEPEA [P0A9Q5],5.95 ± 0.21 h,6.46 ± 0.77 h,6.167 ± 0.012 h,5.92 ± 0.97 h,5.66 ± 0.42 h,3.03 ± 0.31 h,6.15 ± 0.42 h,11.2 ± 0.44 h,6.06 ± 0.44 h,12.1 ± 0.061 h,5.81 ± 0.093 h,12.3 ± 0.26 h
MSYQPQTEAATSRFLNVEEAGKTLRIHFNDCGQGDETVVLLHGSGPGATGWANFSRNIDPLVEAGYRVILLDCPGWGKSDSVVNSGSRSDLNARILKSVVDQLDIAKIHLLGNSMGGHSSVAFTLKWPERVGKLVLMGGGTGGMSLFTPMPTEGIKRLNQLYRQPTIENLKLMMDIFVFDTSDLTDALFEARLNNMLSRRDHLENFVKSLEANPKQFPDFGPRLAEIKAQTLIVWGRNDRFVPMDAGLRLLSGIAGSELHIFRDCGHWAQWEHADAFNQLVLNFLARP,5.3 ± 0.56 h,2.05 ± 0.77 h,2.34 ± 0.87 h,2.71 h,2.32 ± 0.21 h,1.42 ± 0.3 h,2.67 ± 0.065 h,4.07 h,1.93 h,3.13 h,3.21 h,5.69 ± 1.3 h
